Measurements published in patent US20230139680A1 (TEXAS A AND M UNIVERSITY SYSTEM, published 2023).
Starred links: 1 amine or outer side, 2 acyl side, 3 side chain; linkers in the order of their positions; H or OH if unused. Positions of bridges follow the written chain, without caps; N, C: chain ends. Non-standard residues stand in square brackets, D forms with d. No end group written: not given here. *: point of attachment. AcrK = N6-acryloyl-L-lysine, C=CC(=O)NCCCC[C@H](N[*:1])C(=O)[*:2]; 5FAM = O=C1OC2(c3ccc(O)cc3Oc3cc(O)ccc32)c2ccc(C(=O)*)cc21

Legend:
HDAC8 [1] = target: T1, HDAC8 (UniProt Q9BY41 1-377); experiment: fluorescence polarization, 25 nM 5-FAM peptide, protein titrated
T1 construct: Expressed in E. coli BL21(DE3) CodonPlus, purified on Ni-NTA and Q Sepharose; also called HAC8; histone deacetylase 8; not shown: C-terminal TEV site and His6 tag by the plasmid's name (pHD4-HDAC8-TEV-His6)
T1 sequence (looked up): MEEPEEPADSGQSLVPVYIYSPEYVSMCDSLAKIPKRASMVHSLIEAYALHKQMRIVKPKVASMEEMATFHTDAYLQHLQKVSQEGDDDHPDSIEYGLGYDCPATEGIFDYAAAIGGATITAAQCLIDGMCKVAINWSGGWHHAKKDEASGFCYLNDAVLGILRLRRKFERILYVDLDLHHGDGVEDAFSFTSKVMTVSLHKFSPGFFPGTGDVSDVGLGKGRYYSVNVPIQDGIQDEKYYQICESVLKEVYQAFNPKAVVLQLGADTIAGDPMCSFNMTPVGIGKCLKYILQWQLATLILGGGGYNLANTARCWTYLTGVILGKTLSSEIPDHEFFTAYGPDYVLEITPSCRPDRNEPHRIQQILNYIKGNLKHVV

HDAC8 [2] = target: T1, HDAC8; experiment: fluorescence polarization (summary sentence of the example)
Protocol: The fluorescence polarization was measured in a microplate reader at Ex/Em=490 nm/520 nm.

HDAC8 [3] = target: T1, HDAC8; experiment: cell-based or functional assay

B1: 5-FAM-conjugated LinH8a (peptide)
peptide: CQSLWMNKK(5FAM)-NH2
modifications: N-terminus assumed
SMILES: CSCC[C@H](NC(=O)[C@H](Cc1c[nH]c2ccccc12)NC(=O)[C@H](CC(C)C)NC(=O)[C@H](CO)NC(=O)[C@H](CCC(N)=O)NC(=O)[C@@H](N)CS)C(=O)N[C@@H](CC(N)=O)C(=O)N[C@@H](CCCCN)C(=O)N[C@@H](CCCCNC(=O)c1ccc2c(c1)C(=O)OC21c2ccc(O)cc2Oc2cc(O)ccc21)C(N)=O
notes: Linear counterpart with plain Lys in place of AcrK; also called linear counterpart of 5FAM-CycH8a
- Kd (HDAC8 [1]): > 50 µM

B2: 5-FAM-conjugated CycH8a (peptide)
peptide: CQSLWMN[AcrK]K(5FAM)-NH2
modifications: bridge 1-8; not fully specified (bridges)
notes: also called 5FAM-CycH8a; 5FAM-cycH8a
- fold stronger affinity than its linear counterpart (HDAC8 [2]): 6 fold
- IC50 of inhibition of HDAC8 deacetylation of Boc-AcK-AMC (fluorogenic, trypsin-coupled activity assay) (HDAC8 [3]): 9.7 µM
- Kd (HDAC8 [1]): 7.1 µM
